Data reported in the supplement of paper PMC9112550, “Optimization of the antimicrobial peptide Bac7 by deep mutational scanning” (BMC Biology, 2022).

Test system: Escherichia coli TOP10
Test: shrunken log2 fold change of peptide-encoding DNA abundance (4.5 h post-induction vs induction); higher = less antimicrobial activity (less host growth inhibition)
Conditions: time post-induction: 4.5 h; library: site-saturation at positions 5, 18, 19, 20
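Also: peptides expressed intracellularly from a pBAD plasmid library in pooled LB shake-flask culture, induced with 0.3% L-arabinose, DNA abundance read by NGS, three biological replicates, DESeq2 with apeglm shrinkage.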

Sequence	shrunken log2 fold change
RRIRFRPPRLPRPRPRPDMWPRP	-1.03
RRIRRRPPRLPRPRPRPINMPRP	-0.271
RRIRDRPPRLPRPRPRPGTGPRP	0.304
RRIRHRPPRLPRPRPRPMPYPRP	-0.00164
RRIRFRPPRLPRPRPRPESKPRP	0.183
RRIRYRPPRLPRPRPRPSSFPRP	-0.0941
RRIRHRPPRLPRPRPRPWVIPRP	0.00302
RRIRCRPPRLPRPRPRPYNWPRP	-0.917
RRIRRRPPRLPRPRPRPDPQPRP	1.23
RRIRARPPRLPRPRPRPIIMPRP	-0.258
RRIRVRPPRLPRPRPRPSVWPRP	0.102
RRIRPRPPRLPRPRPRPGHDPRP	0.235
RRIRVRPPRLPRPRPRPQRCPRP	0.00942
RRIRKRPPRLPRPRPRPLSGPRP	-0.0828
RRIRKRPPRLPRPRPRPAHPPRP	0.711
RRIRDRPPRLPRPRPRPPDFPRP	0.0426
RRIRARPPRLPRPRPRPYKPPRP	-0.304
RRIRYRPPRLPRPRPRPSMWPRP	-1.68
RRIRGRPPRLPRPRPRPQLPPRP	0.183
RRIRTRPPRLPRPRPRPQQAPRP	-0.0444
RRIRPRPPRLPRPRPRPEQSPRP	0.289
RRIRQRPPRLPRPRPRPESYPRP	-0.0748
RRIRVRPPRLPRPRPRPMQEPRP	-0.0018
RRIRLRPPRLPRPRPRPANGPRP	0.115
RRIRYRPPRLPRPRPRPIQFPRP	-0.00822

Sequence	shrunken log2 fold change
RRIRHRPPRLPRPRPRPGSSPRP	0.0127
RRIRRRPPRLPRPRPRPFNDPRP	0.0417
RRIRPRPPRLPRPRPRPGENPRP	0.184
RRIRCRPPRLPRPRPRPINRPRP	0.0376
RRIRWRPPRLPRPRPRPMNNPRP	-0.606
RRIRRRPPRLPRPRPRPTMLPRP	0.0234
RRIRTRPPRLPRPRPRPIMWPRP	0.0465
RRIRMRPPRLPRPRPRPRCYPRP	-0.00529
RRIRFRPPRLPRPRPRPFSDPRP	-0.229
RRIRPRPPRLPRPRPRPYIIPRP	-0.455
RRIRDRPPRLPRPRPRPITMPRP	0.111
RRIRSRPPRLPRPRPRPRWAPRP	0.158
RRIRMRPPRLPRPRPRPSNAPRP	0.405
RRIRHRPPRLPRPRPRPCYTPRP	0.0618
RRIRDRPPRLPRPRPRPGFYPRP	0.00794
RRIRFRPPRLPRPRPRPEIPPRP	0.163
RRIRKRPPRLPRPRPRPIQAPRP	-0.000921
RRIRIRPPRLPRPRPRPYHMPRP	-0.123
RRIRERPPRLPRPRPRPFNNPRP	-0.39
RRIRHRPPRLPRPRPRPYGYPRP	-0.22
RRIRTRPPRLPRPRPRPPIIPRP	0.0882
RRIRWRPPRLPRPRPRPSLGPRP	0.338
RRIRTRPPRLPRPRPRPTRWPRP	0.301
RRIRFRPPRLPRPRPRPACFPRP	0.0876
RRIRWRPPRLPRPRPRPQIPPRP	-0.493

Sequence	shrunken log2 fold change
RRIRWRPPRLPRPRPRPNWCPRP	-0.0188
RRIRRRPPRLPRPRPRPFERPRP	0.0145
RRIRHRPPRLPRPRPRPYCWPRP	-0.352
RRIRERPPRLPRPRPRPDANPRP	-0.103
RRIRVRPPRLPRPRPRPEWHPRP	-0.158
RRIRPRPPRLPRPRPRPCPDPRP	0.0391
RRIRLRPPRLPRPRPRPEYPPRP	-0.336
RRIRTRPPRLPRPRPRPGKAPRP	-0.0369
RRIRPRPPRLPRPRPRPFEKPRP	0.0465
RRIRKRPPRLPRPRPRPFFTPRP	0.19
RRIRERPPRLPRPRPRPMRVPRP	0.501
RRIRDRPPRLPRPRPRPYHCPRP	-0.00783
RRIRFRPPRLPRPRPRPNHAPRP	0.0222
RRIRLRPPRLPRPRPRPMFDPRP	-0.249
RRIRNRPPRLPRPRPRPGNGPRP	-0.462
RRIRHRPPRLPRPRPRPLCNPRP	-0.337
RRIRSRPPRLPRPRPRPDSRPRP	0.148
RRIRRRPPRLPRPRPRPNTPPRP	0.0411
RRIRARPPRLPRPRPRPNEIPRP	-0.179
RRIRTRPPRLPRPRPRPQEDPRP	-0.01
RRIRVRPPRLPRPRPRPYSCPRP	-0.00112
RRIRLRPPRLPRPRPRPTYEPRP	-0.308
RRIRPRPPRLPRPRPRPWDKPRP	-0.629
RRIRYRPPRLPRPRPRPHHYPRP	-1.79
RRIRPRPPRLPRPRPRPSSRPRP	-0.863

Sequence	shrunken log2 fold change
RRIRKRPPRLPRPRPRPQNYPRP	-0.196
RRIRPRPPRLPRPRPRPPGMPRP	0.501
RRIRARPPRLPRPRPRPLSFPRP	0.0158
RRIRIRPPRLPRPRPRPMTPPRP	0.0425
RRIRWRPPRLPRPRPRPYHCPRP	-0.276
RRIRARPPRLPRPRPRPNRYPRP	-0.191
RRIRMRPPRLPRPRPRPDHTPRP	0.329
RRIRLRPPRLPRPRPRPKPAPRP	0.679
RRIRARPPRLPRPRPRPASMPRP	0.301
RRIRWRPPRLPRPRPRPPFFPRP	0.224
RRIRRRPPRLPRPRPRPPLKPRP	0.302
RRIRLRPPRLPRPRPRPCYTPRP	-0.525
RRIRDRPPRLPRPRPRPIFNPRP	-0.239
RRIRSRPPRLPRPRPRPDHLPRP	-0.0228
RRIRGRPPRLPRPRPRPFAKPRP	0.479
RRIRYRPPRLPRPRPRPHEWPRP	-0.0416
RRIRSRPPRLPRPRPRPKGMPRP	-0.0819
RRIRFRPPRLPRPRPRPIQDPRP	-0.025
RRIRPRPPRLPRPRPRPCLKPRP	-0.0625
RRIRMRPPRLPRPRPRPWYHPRP	-0.00277
RRIRRRPPRLPRPRPRPDRTPRP	0.222
RRIRCRPPRLPRPRPRPSPHPRP	-0.144
RRIRPRPPRLPRPRPRPAHCPRP	0.0637
RRIRQRPPRLPRPRPRPTQSPRP	0.375
RRIRIRPPRLPRPRPRPFMTPRP	-1.01

Sequence	shrunken log2 fold change
RRIRNRPPRLPRPRPRPHCMPRP	-0.251
RRIRWRPPRLPRPRPRPHFGPRP	0.168
RRIRVRPPRLPRPRPRPRAWPRP	0.086
RRIRERPPRLPRPRPRPFWMPRP	-0.262
RRIRDRPPRLPRPRPRPCPRPRP	-0.126
RRIRKRPPRLPRPRPRPWDLPRP	-0.136
RRIRCRPPRLPRPRPRPKNQPRP	-0.112
RRIRKRPPRLPRPRPRPEIQPRP	-0.0762
RRIRGRPPRLPRPRPRPRMDPRP	0.59
RRIRVRPPRLPRPRPRPLNKPRP	-0.323
RRIRARPPRLPRPRPRPMEKPRP	-0.00226
RRIRKRPPRLPRPRPRPGDRPRP	0.886
RRIRHRPPRLPRPRPRPQAAPRP	-0.0209
RRIRLRPPRLPRPRPRPQRDPRP	0.231
RRIRNRPPRLPRPRPRPVDCPRP	-0.209
RRIRYRPPRLPRPRPRPQQHPRP	-0.278
RRIRSRPPRLPRPRPRPQAEPRP	-0.0131
RRIRERPPRLPRPRPRPSLTPRP	-0.699
RRIRHRPPRLPRPRPRPAKVPRP	0.00133
RRIRIRPPRLPRPRPRPQHAPRP	0.16
RRIRTRPPRLPRPRPRPSPCPRP	-0.0588
RRIRERPPRLPRPRPRPTTEPRP	-0.0421
RRIRFRPPRLPRPRPRPNDVPRP	0.0386
RRIRFRPPRLPRPRPRPFCTPRP	-0.19
RRIRNRPPRLPRPRPRPGAMPRP	0.101

Sequence	shrunken log2 fold change
RRIRSRPPRLPRPRPRPAHQPRP	-0.0659
RRIRKRPPRLPRPRPRPIQFPRP	0.0779
RRIRNRPPRLPRPRPRPTCLPRP	-0.0993
RRIRERPPRLPRPRPRPRILPRP	-0.202
RRIRYRPPRLPRPRPRPFGAPRP	-0.391
RRIRHRPPRLPRPRPRPQASPRP	0.0479
RRIRVRPPRLPRPRPRPAVYPRP	-0.161
RRIRWRPPRLPRPRPRPCATPRP	0.183
RRIRERPPRLPRPRPRPCSCPRP	-0.00783
RRIRCRPPRLPRPRPRPKMAPRP	0.0796
RRIRERPPRLPRPRPRPEFPPRP	-0.00557
RRIRCRPPRLPRPRPRPNSEPRP	-0.398
RRIRDRPPRLPRPRPRPRRTPRP	0.186
RRIRWRPPRLPRPRPRPRSNPRP	-0.133
RRIRLRPPRLPRPRPRPNAEPRP	0.143
RRIRTRPPRLPRPRPRPKPIPRP	0.0226
RRIRKRPPRLPRPRPRPLVKPRP	0.195
RRIRSRPPRLPRPRPRPGTRPRP	-0.0748
RRIRMRPPRLPRPRPRPDRGPRP	0.367
RRIRKRPPRLPRPRPRPNTEPRP	0.0416
RRIRQRPPRLPRPRPRPDWYPRP	-0.32
RRIRSRPPRLPRPRPRPERQPRP	0.1
RRIRKRPPRLPRPRPRPNCVPRP	0.109
RRIRCRPPRLPRPRPRPGWIPRP	0.198
RRIRSRPPRLPRPRPRPSYLPRP	-0.707
